# Reference: US20060134801A1, “Methods and compositions involving MDA-7” (Board of Regents, The University of Texas System, priority 2003, published 2006)
# B1: sMDA-7: soluble secreted human MDA-7 (IL-24) protein purified from stably transfected 293-mda-7 cells (protein)
# chain: AQGQEFHFGPCQVKGVVPQKLWEAFWAVKDTMQAQDNITSARLLQQEVLQNVSDAESCYLVHTLLEFYLKTVFKNYHNRTVEVRTLKSFSTLANNFVLIVSQLQPSQENEMFSIRDSAHRRFLLFRRAFKQLDVEAALTKALGEVDILLTWMQKFYKL
# Assays:
# STAT-3 = STAT-3 activation, western blot and immunofluorescence; format: cell-based, human; conditions: HUVEC; 10 ng/ml; 4 h to 24 h
# Method: Therefore, studies were conducted to determine the activation of STAT-3 expression in endothelial cells after treatment with sMDA-7. HUVEC were seeded in 6-well plates (5×10^5 cells/well) and treated with sMDA-7 (10 ng/ml). Untreated cells served as negative controls. Cells were harvested at 4 h and 24 h after treatment and analyzed for STAT-3 expression by western blot analysis as previously described (Mhashilkar et al., 2001; Pataer et al., 2002). […] (pSTAT-3) protein was detected using rabbit anti-human pSTAT-3 antibody (1:1000, Cell Signaling Technology, Beverly, Mass.) and horseradish peroxidase-labeled secondary antibody (Amersham Biosciences, Piscataway, N.J.). Finally, the proteins were visualized on enhanced chemiluminescence film (Hyperfilm, Amersham Biosciences, Piscataway, N.J.) by application of Amersham's enhanced chemiluminescence western blotting detection system. STAT-3 protein expression level was quantitated after normalization with total STAT-3 protein expression using Image Quant software (Molecular Dynamics, Amersham Pharmacia Biotech, Piscataway, N.J.).
# Activation of STAT-3 was also determined by immunofluorescence assay. […] Pictures were taken through a fluorescence microscope 1-2 h after staining.
# [1] = system: bFGF-induced angiogenesis; experiment: In vivo Matrigel plug angiogenesis assay; design: species or system athymic nude mice; conditions: 12.5 ng in Matrigel with 60 ng bFGF; 10 days
# Method: To determine the antiangiogenic activity of sMDA-7, an in vivo angiogenesis assay was performed. Briefly, sMDA-7 (12.5 ng) and bFGF (60 ng) was mixed with 500 μl of Matrigel (Beckton Dickinson, Bedford, Mass.) on ice and injected subcutaneously into athymic nude mice. Animals receiving Matrigel containing only bFGF (60 ng) served as positive controls and animals receiving Matrigel containing no growth factor served as negative controls. Each group comprised of five animals and the experiments were performed twice. Animals were sacrificed 10 days after injection. The Matrigel plugs were recovered, photographed, and subjected to hemoglobin analysis as previously described (Pessaniti et al., 1992).
# A549 tumor xenografts = experiment: A549 xenograft tumors with 293-mda-7 cells (mixing and distant implant); format: in vivo, nude mice; conditions: 3 days postimplantation of 293-mda-7 cells
# Method: […] 293 cells and 293-mda-7 cells were first tested for their ability to form tumors. […] No tumors formed at this cell concentration, so subsequent experiments were performed using this cell number. For in vivo mixing experiments, human lung tumor cells (A549) grown to 90% confluency were trypsinized, washed, and resuspended in sterile phosphate-buffered saline at a concentration of 5×10^6/ml. The tumor-cell suspension was mixed with an equal number (5×10^6/ml) of parental 293 cells or with 293-mda-7 cells, gently vortexed, and injected subcutaneously in nude mice (10^6 cells/animal) as described above. Each group comprised of eight animals, and the experiments were done twice. Tumor growth was monitored and measured as described previously (Saeki et al., 2002). At the end of the experiment, animals were euthanized by CO2 inhalation, and tumors were harvested for histopathological analysis, western blot analysis, and for CD31 and TUNEL staining.
# To evaluate the systemic effect of sMDA-7 on tumor growth, subcutaneous tumors were established by injecting A549 tumor cells (5×10^6 cells) into the lower right flank of nude mice. […] The effect of sMDA-7 on tumor growth was monitored as described above. […]
# Tumor tissues were stained for CD31 and TUNEL as previously described (Saeki et al., 2002). […] Tissue sections were analyzed and quantitated, and the results interpreted in a blind fashion.
# A375.S2 = experiment: TUNEL apoptosis assay; format: cell-based, human; conditions: 40 ng/ml, 3 days
# Method: (§1) The mechanism of the anti-tumor activity of rhMDA-7 was also evaluated. Melanoma cells were treated with rhMDA-7 protein and assessed for apoptosis using the TUNEL assay. […] These studies were performed with purified rhMDA-7 protein. The melanoma cells have also been treated with supernatant from 293-mda7 cells or control 293 cells. Only the 293-mda7 supernatant causes cell killing.
# A375 = experiment: TUNEL apoptosis assay; format: cell-based, human; conditions: 40 ng/ml, 3 days
# Method: as §1
# MeWo = experiment: TUNEL apoptosis assay; format: cell-based, human; conditions: 40 ng/ml, 3 days
# Method: as §1
# SK-Mel-1 = experiment: TUNEL apoptosis assay; format: cell-based, human; conditions: 40 ng/ml, 3 days
# Method: as §1
# WM35 = experiment: TUNEL apoptosis assay; format: cell-based, human; conditions: 40 ng/ml, 3 days
# Method: as §1
# WM793 = experiment: TUNEL apoptosis assay; format: cell-based, human; conditions: 40 ng/ml, 3 days
# Method: as §1
# [2] = system: A549 cells and CCD16 cells; experiment: Clonogenic survival with MDA-7 conditioned medium and radiation; format: cell-based, human; conditions: 10 ng/ml
# Method: FIG. 60. Clonogenic survival of A549 cells (A) and CCD16 cells (B). Cells were serum starved for 12 hours and treated with conditioned medium containing mda7 protein (10 ng/ml). Twelve hours later, cells were irradiated, harvested and plated in regular medium. After incubation for 14 days, colonies were counted and survival.
# Twelve hours after seeding HUVECs in 4-well plates (Nunc, Roskilde, Denmark), medium was replaced with serum/growth factor-free medium. After serum/growth factor starvation for 12 hours, cells were treated with complete medium containing either MDA-7 protein (10 ng/ml) (removed from cultures of 293 cells), angiostatin (100 ng/ml), or endostatin (100 ng/ml). Twelve hours later, cells were irradiated with ^137CS unit (3.4 Gy/min) at room temperature, trypsinized and counted. Known numbers of cells were replated in 60 mm culture dishes and incubated to allow macroscopic colony development. Colonies were counted after 14 days, and the percent plating efficiency and surviving fractions following given treatments were calculated based on the survival of non-irradiated cells.
molecule,measurement,setting,value
B1,increase in pSTAT-3 expression over PBS treated control,STAT-3,2-3 times
same,bFGF-induced angiogenesis (hemoglobin),[1],significantly inhibited
same,serum level of circulating sMDA-7 by ELISA,A549 tumor xenografts,approximately 50 ng/ml
same,% TUNEL Positive,A375.S2,12.3%
same,% TUNEL Positive,A375,18.78%
same,% TUNEL Positive,MeWo,12.11%
same,% TUNEL Positive,SK-Mel-1,5.0%
same,% TUNEL Positive,WM35,17.88%
same,% TUNEL Positive,WM793,9.88%
same,radiosensitizing effects,[2],does not produce radiosensitizing effects
